Test results published in paper PMC4319893, “Targeting Protein-Protein Interactions with Trimeric Ligands: High Affinity Inhibitors of the MAGUK Protein Family” (PLoS ONE, 2015).

Key:
Assay in all cases: fluorescence polarisation; monomeric FP assay with monomeric fluorescent peptide probes (PSD-95 PDZ1-2, PDZ1-2-3 and single PDZ domains); 50 mM TRIS, 100 mM NaCl, 1 mM EDTA, 1 mM DTT
PSD-95 PDZ1-2 (human) = biological target: PSD-95 PDZ1-2 (human)
PSD-95 PDZ2 (human) = biological target: PSD-95 PDZ2 (human)
PSD-95 PDZ1-2-3 (human) = biological target: PSD-95 PDZ1-2-3 (human)
PSD-95 PDZ1 (human) = biological target: PSD-95 PDZ1 (human)

- fold lower affinity than 17 (PSD-95 PDZ1-2 (human)): > 1000 fold
- affinity (PSD-95 PDZ2 (human)): 25 µM
- fold lower affinity than 17 (PSD-95 PDZ1-2-3 (human)): > 1000 fold
- affinity (PSD-95 PDZ1 (human)): 97 µM
Substance: CRIPT hexapeptide YKQTSV (1)
